# Experimental data taken from patent US20190218304A1 (INNATE PHARMA, published 2019).
# T1: CD39 mutant 19 (human, UniProt P49961 1-510)
# T1 construct: Expressed on transfected Hek-293T cells; also called M19
# T1 chain: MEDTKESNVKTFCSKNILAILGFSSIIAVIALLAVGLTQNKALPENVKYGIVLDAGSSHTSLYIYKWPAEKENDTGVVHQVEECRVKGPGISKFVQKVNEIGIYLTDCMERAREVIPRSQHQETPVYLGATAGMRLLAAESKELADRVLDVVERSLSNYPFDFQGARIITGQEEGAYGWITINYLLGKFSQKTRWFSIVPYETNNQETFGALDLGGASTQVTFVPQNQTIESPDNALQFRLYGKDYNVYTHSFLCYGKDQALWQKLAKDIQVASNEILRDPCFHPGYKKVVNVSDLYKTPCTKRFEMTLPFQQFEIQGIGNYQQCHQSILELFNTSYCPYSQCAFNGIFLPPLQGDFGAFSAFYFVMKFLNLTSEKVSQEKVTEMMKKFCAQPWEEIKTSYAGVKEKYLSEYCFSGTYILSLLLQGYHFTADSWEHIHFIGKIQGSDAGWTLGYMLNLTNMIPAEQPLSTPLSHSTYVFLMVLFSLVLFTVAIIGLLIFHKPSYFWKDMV
# T2: human CD39 expressed on cells (human, UniProt P49961 1-510)
# T2 construct: On CHO transfectants, HEK-293T transfectants (wild type), Ramos lymphoma cells or monocyte-derived dendritic cells, as named under assay; also called huCD39; CHO-huCD39
# T2 sequence: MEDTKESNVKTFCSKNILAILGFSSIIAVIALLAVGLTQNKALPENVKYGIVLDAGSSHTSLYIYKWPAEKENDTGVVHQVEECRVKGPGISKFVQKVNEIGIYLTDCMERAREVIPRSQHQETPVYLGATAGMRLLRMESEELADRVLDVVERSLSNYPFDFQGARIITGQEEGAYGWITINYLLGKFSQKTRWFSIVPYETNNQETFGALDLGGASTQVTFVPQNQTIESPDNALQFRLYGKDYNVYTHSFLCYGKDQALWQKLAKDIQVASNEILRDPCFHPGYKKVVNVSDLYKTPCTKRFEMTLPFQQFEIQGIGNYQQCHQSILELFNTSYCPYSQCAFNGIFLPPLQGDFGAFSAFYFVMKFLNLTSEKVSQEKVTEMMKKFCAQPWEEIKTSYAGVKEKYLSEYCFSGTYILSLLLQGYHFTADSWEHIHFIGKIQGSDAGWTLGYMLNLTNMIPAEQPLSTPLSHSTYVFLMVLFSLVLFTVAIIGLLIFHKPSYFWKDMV
# T3: CD39 mutant 5 (human, UniProt P49961 1-510)
# T3 construct: Expressed on transfected Hek-293T cells; also called M5
# T3 chain: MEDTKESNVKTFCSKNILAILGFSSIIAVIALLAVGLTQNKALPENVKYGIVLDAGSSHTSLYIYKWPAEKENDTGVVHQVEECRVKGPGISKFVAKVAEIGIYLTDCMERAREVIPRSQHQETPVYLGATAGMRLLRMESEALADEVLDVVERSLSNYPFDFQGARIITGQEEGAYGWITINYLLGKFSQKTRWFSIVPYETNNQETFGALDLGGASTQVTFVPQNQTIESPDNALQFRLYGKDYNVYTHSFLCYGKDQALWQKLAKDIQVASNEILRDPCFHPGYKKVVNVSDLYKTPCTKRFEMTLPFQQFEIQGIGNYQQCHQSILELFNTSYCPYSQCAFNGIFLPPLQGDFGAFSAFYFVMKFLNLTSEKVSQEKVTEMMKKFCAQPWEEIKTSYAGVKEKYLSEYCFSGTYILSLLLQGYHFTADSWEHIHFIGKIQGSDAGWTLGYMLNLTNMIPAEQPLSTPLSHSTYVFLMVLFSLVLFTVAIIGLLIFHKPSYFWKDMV
# T4: CD39 mutant 15 (human, UniProt P49961 1-510)
# T4 construct: Expressed on transfected Hek-293T cells; also called M15
# T4 chain: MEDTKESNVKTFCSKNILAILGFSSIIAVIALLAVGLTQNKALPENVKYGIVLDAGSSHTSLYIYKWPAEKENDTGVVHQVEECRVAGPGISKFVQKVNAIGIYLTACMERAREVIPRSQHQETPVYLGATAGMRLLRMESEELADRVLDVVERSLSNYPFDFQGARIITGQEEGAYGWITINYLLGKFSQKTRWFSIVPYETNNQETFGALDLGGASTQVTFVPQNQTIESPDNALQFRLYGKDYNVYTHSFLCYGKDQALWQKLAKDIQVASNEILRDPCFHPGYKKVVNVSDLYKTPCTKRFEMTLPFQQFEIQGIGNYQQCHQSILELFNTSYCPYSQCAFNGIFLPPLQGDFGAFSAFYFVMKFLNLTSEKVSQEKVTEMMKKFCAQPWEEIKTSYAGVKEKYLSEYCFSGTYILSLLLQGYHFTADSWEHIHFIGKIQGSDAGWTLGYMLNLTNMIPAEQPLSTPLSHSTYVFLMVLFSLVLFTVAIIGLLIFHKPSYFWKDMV
# T5: CD39 mutant 11 (human, UniProt P49961 1-510)
# T5 construct: Expressed on transfected Hek-293T cells
# T5 sequence: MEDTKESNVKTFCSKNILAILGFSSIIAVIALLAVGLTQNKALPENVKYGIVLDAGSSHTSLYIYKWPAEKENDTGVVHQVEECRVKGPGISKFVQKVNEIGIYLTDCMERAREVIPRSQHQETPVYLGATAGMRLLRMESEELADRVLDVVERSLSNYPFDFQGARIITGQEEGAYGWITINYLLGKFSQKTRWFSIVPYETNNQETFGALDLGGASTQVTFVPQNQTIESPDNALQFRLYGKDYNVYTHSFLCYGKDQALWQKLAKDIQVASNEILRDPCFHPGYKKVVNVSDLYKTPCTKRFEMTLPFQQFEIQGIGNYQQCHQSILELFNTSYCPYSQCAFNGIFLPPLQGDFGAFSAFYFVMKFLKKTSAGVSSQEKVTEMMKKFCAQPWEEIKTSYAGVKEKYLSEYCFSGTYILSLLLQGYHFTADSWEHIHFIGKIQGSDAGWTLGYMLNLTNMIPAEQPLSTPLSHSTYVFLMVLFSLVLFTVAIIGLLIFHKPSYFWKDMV
# Tests used:
# CD39 mutant 19 [1] = molecular target: T1, CD39 mutant 19; assay: flow cytometry on Hek-293T cells transfected with CD39 mutant 19 [panel M19]
# [2] = molecular target: T2, human CD39 expressed on cells; assay: flow cytometry on Hek-293T cells transfected with wild-type CD39 (unstained cells, US: 10,3) [panel WT]
# CD39 mutant 5 [3] = molecular target: T3, CD39 mutant 5; assay: flow cytometry on Hek-293T cells transfected with CD39 mutant 5 [panel M5]
# CD39 mutant 15 [4] = molecular target: T4, CD39 mutant 15; assay: flow cytometry on Hek-293T cells transfected with CD39 mutant 15 [panel M15]
# CD39 mutant 15 [5] = molecular target: T4, CD39 mutant 15; assay: flow cytometry on transfected Hek-293T cells
# Protocol: (§1) Mutants were transfected in Hek-293T cells, as shown in the table 1, using numbering of SEQ ID NO: 1. Dose-ranges of test antibodies (10-2.5-0.625-0.1563-0.0391-0.0098-0.0024-0.0006 μg/ml) are tested on the 20 generated mutants by flow cytometry.
# CD39 mutant 11 = molecular target: T5, CD39 mutant 11; assay: flow cytometry on transfected Hek-293T cells
# Protocol: as §1
# CD39 mutant 5 [6] = molecular target: T3, CD39 mutant 5; assay: flow cytometry on transfected Hek-293T cells
# Protocol: as §1
# CD39 mutant 19 [7] = molecular target: T1, CD39 mutant 19; assay: flow cytometry on transfected Hek-293T cells
# Protocol: as §1
Binder,binding result (CD39 mutant 19 [1]),Median : Comp-Alexa Fluor 647-A [2],binding result (CD39 mutant 5 [3]),binding result (CD39 mutant 15 [4]),binding result (CD39 mutant 15 [5]),binding result (CD39 mutant 11),binding result (CD39 mutant 5 [6]),binding result (CD39 mutant 19 [7])
"antibody I-395 (antibody, V domains shown, Purified from hybridoma supernatant with protein A for screening) VH: EVQLQQSGPELVKPGASVRMSCKASGYTFTDYNMHWVKKNHGKGLEWIGYINPNNGGTTYNQKFKGKATLTVNTSSKTAYMELRSLTSEDSAVYYCTRGGTRFASWGQGTLVTVSA VL: not shown",no binding,4240,no binding,,,,,
"antibody I-396 (antibody, V domains shown, Purified from hybridoma supernatant with protein A for screening) VH: EVQLQQSGAELVKPGASVKLSCIVSGFNIKDTYINWVKQRPEQGLEWIGRIDPANGNTKYDPKFQGKATMTSDTSSNTAYLHLSSLTSDDSAVYYCARWGYDDEEADYFDSWGQGTTLTVSS VL: not shown",binds,4340,binds,no binding,,,,
"antibody I-399 (antibody, V domains shown, Purified from hybridoma supernatant with protein A for screening) VH: PVQLQQPGAEVVMPGASVKLSCKASGYTFTSFWMNWMRQRPGQGLEWIGEIDPSDFYTNSNQRFKGKATLTVDKSSSTAYMQLSSLTSEDSAVYFCARGDFGWYFDVWGTGTSVTVSS VL: EIVLTQSPTTMTSSPGEKITFTCSASSSINSNYLHWYQQKPGFSPKLLIYRTSNLASGVPTRFSGSGSGTSYSLTIGTMEAEDVATYYCQQGSSLPRTFGGGTKLEIK",,,,,binds,no binding (tested: 10 µg/ml (top of dose range)),binds,binds
